Assay results from article PMC8492067 (eLife, 2021).

Legend:
[1] = molecular target: T1, NrnCBh (Bartonella henselae, UniProt A0A0R4J6U7); assay: DraCALA nitrocellulose spot binding, radiolabelled ligand
T1 construct: gene rnd1

[2] = molecular target: the molecule itself; assay: crystal structure
[3] = molecular target: the molecule itself; assay: SEC-MALS
[4] = molecular target: T2, NrnCBh (nano-RNase C) (Bartonella henselae, UniProt A0A0R4J6U7 1-206); assay: cryo-EM; DraCALA: 10 mM Tris-HCl pH 8, 100 mM NaCl, 5 mM CaCl2; temperature not stated; conditions: protein: recombinant; tags: tag-less (His6-SUMO removed by Ulp-1); chain copies: 8
T2 sequence: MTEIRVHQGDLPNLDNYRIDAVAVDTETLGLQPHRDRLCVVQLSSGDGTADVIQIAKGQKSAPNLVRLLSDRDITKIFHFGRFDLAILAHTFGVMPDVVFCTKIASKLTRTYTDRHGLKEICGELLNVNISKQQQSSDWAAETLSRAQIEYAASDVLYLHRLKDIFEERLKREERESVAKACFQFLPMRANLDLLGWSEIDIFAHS

[5] = molecular target: T2, NrnCBh (nano-RNase C); assay: cryo-EM; only 3' dinucleotide resolved; DraCALA: 10 mM Tris-HCl pH 8, 100 mM NaCl, 5 mM CaCl2; temperature not stated; conditions: protein: recombinant; tags: tag-less (His6-SUMO removed by Ulp-1); chain copies: 8
[6] = molecular target: T2, NrnCBh (nano-RNase C); assay: DraCALA (nitrocellulose); DraCALA: 10 mM Tris-HCl pH 8, 100 mM NaCl, 5 mM CaCl2; temperature not stated; conditions: protein: recombinant; tags: tag-less (His6-SUMO removed by Ulp-1); chain copies: 8

Molecule `Nc1nc2c(ncn2[C@@H]2O[C@H](COP(=O)(O)O[C@H]3[C@@H](O)[C@H](n4cnc5c(=O)[nH]c(N)nc54)O[C@@H]3COP(=O)(O)O[C@H]3[C@@H](O)[C@H](n4cnc5c(N)ncnc54)O[C@@H]3COP(=O)(O)O)[C@@H](O)[C@H]2O)c(=O)[nH]1` [pAGG] has a Kd [1] of 3490 nM.

`Nc1nc2c(ncn2[C@@H]2O[C@H](COP(=O)(O)O[C@H]3[C@@H](O)[C@H](n4cnc5c(=O)[nH]c(N)nc54)O[C@@H]3COP(=O)(O)O)[C@@H](O)[C@H]2O)c(=O)[nH]1` [pGG] showed a Kd [1] of 17.7 nM.

B1: Bartonella henselae nano-RNase C (NrnC), wild type (enzyme)
chain: MTEIRVHQGDLPNLDNYRIDAVAVDTETLGLQPHRDRLCVVQLSSGDGTADVIQIAKGQKSAPNLVRLLSDRDITKIFHFGRFDLAILAHTFGVMPDVVFCTKIASKLTRTYTDRHGLKEICGELLNVNISKQQQSSDWAAETLSRAQIEYAASDVLYLHRLKDIFEERLKREERESVAKACFQFLPMRANLDLLGWSEIDIFAHS
notes: also called NrnCBh; wild-type NrnCBh
In the case of B1, the “stoichiometry N” value [2] is reported as 8.

B2: Bartonella henselae NrnC H79A (enzyme)
chain: MTEIRVHQGDLPNLDNYRIDAVAVDTETLGLQPHRDRLCVVQLSSGDGTADVIQIAKGQKSAPNLVRLLSDRDITKIFAFGRFDLAILAHTFGVMPDVVFCTKIASKLTRTYTDRHGLKEICGELLNVNISKQQQSSDWAAETLSRAQIEYAASDVLYLHRLKDIFEERLKREERESVAKACFQFLPMRANLDLLGWSEIDIFAHS
notes: Phosphate cap mutant
In the case of B2, the “stoichiometry N” value [3] is reported as 8.

B3: Bartonella henselae NrnC D25A (enzyme)
chain: MTEIRVHQGDLPNLDNYRIDAVAVATETLGLQPHRDRLCVVQLSSGDGTADVIQIAKGQKSAPNLVRLLSDRDITKIFHFGRFDLAILAHTFGVMPDVVFCTKIASKLTRTYTDRHGLKEICGELLNVNISKQQQSSDWAAETLSRAQIEYAASDVLYLHRLKDIFEERLKREERESVAKACFQFLPMRANLDLLGWSEIDIFAHS
B3 was tested, and the “stoichiometry N” value [3] was 8.

B4: Bartonella henselae NrnC Y151A (enzyme)
chain: MTEIRVHQGDLPNLDNYRIDAVAVDTETLGLQPHRDRLCVVQLSSGDGTADVIQIAKGQKSAPNLVRLLSDRDITKIFHFGRFDLAILAHTFGVMPDVVFCTKIASKLTRTYTDRHGLKEICGELLNVNISKQQQSSDWAAETLSRAQIEAAASDVLYLHRLKDIFEERLKREERESVAKACFQFLPMRANLDLLGWSEIDIFAHS
For B4, the “stoichiometry N” value [3] was 8.

B5: Bartonella henselae NrnC K103A (enzyme)
chain: MTEIRVHQGDLPNLDNYRIDAVAVDTETLGLQPHRDRLCVVQLSSGDGTADVIQIAKGQKSAPNLVRLLSDRDITKIFHFGRFDLAILAHTFGVMPDVVFCTAIASKLTRTYTDRHGLKEICGELLNVNISKQQQSSDWAAETLSRAQIEYAASDVLYLHRLKDIFEERLKREERESVAKACFQFLPMRANLDLLGWSEIDIFAHS
notes: Phosphate cap mutant
With B5 the “stoichiometry N” value [3] was 8.

B6: Bartonella henselae NrnC L31A (enzyme)
chain: MTEIRVHQGDLPNLDNYRIDAVAVDTETLGAQPHRDRLCVVQLSSGDGTADVIQIAKGQKSAPNLVRLLSDRDITKIFHFGRFDLAILAHTFGVMPDVVFCTKIASKLTRTYTDRHGLKEICGELLNVNISKQQQSSDWAAETLSRAQIEYAASDVLYLHRLKDIFEERLKREERESVAKACFQFLPMRANLDLLGWSEIDIFAHS
notes: L-wedge mutant
With B6 the “stoichiometry N” value [3] was 8.

B7: Bartonella henselae NrnC H205A (enzyme)
chain: MTEIRVHQGDLPNLDNYRIDAVAVDTETLGLQPHRDRLCVVQLSSGDGTADVIQIAKGQKSAPNLVRLLSDRDITKIFHFGRFDLAILAHTFGVMPDVVFCTKIASKLTRTYTDRHGLKEICGELLNVNISKQQQSSDWAAETLSRAQIEYAASDVLYLHRLKDIFEERLKREERESVAKACFQFLPMRANLDLLGWSEIDIFAAS
With B7 the “stoichiometry N” value [3] was 8.

B8: Brucella melitensis nano-RNase C (NrnC), wild type (enzyme)
chain: MTIRFHRNDLPNLDNYQVDAVAIDTETLGLNPHRDRLCVVQISPGDGTADVIQIEAGQKKAPNLVKLLKDRSITKIFHFGRFDLAVLAHAFGTMPQPVFCTKIASKLTRTYTDRHGLKEICSELLDVSISKQQQSSDWAAEVLSQAQLEYAASDVLYLHRLKAVLEQRLERDGRTKQAEACFKFLPTRSELDLMGWAESDIFAHS
notes: also called NrnCBm
With B8 the “stoichiometry N” value [2] was 8.

AAAGG (ssRNA, 5' phosphate) [pAAAGG]: binds [4].

AGG (ssRNA, 5' phosphate) [pAGG]: binds [5].

Molecule AAAAAGG (ssRNA, 5' phosphate) [pAAAAAGG] has a Kd [6] of 576 nM.
